Laboratory results reported in US20240174744A1 (SCIRHOM, published 2024).

How the values were obtained:
[1] = biological target: T1, miR2-FL-WT-T7 (mouse iRhom2 full length wild type C-terminally tagged with 3 consecutive copies of the T7 … (mouse, UniProt Q80WQ6 1-827)); experiment: FACS, MEF-DKO-miR2-FL-WT-T7 cells
T1 construct: also called mouse iRhom2 variant expressed by MEF-DKO-miR2-FL-WT-T7 cells
T1 sequence: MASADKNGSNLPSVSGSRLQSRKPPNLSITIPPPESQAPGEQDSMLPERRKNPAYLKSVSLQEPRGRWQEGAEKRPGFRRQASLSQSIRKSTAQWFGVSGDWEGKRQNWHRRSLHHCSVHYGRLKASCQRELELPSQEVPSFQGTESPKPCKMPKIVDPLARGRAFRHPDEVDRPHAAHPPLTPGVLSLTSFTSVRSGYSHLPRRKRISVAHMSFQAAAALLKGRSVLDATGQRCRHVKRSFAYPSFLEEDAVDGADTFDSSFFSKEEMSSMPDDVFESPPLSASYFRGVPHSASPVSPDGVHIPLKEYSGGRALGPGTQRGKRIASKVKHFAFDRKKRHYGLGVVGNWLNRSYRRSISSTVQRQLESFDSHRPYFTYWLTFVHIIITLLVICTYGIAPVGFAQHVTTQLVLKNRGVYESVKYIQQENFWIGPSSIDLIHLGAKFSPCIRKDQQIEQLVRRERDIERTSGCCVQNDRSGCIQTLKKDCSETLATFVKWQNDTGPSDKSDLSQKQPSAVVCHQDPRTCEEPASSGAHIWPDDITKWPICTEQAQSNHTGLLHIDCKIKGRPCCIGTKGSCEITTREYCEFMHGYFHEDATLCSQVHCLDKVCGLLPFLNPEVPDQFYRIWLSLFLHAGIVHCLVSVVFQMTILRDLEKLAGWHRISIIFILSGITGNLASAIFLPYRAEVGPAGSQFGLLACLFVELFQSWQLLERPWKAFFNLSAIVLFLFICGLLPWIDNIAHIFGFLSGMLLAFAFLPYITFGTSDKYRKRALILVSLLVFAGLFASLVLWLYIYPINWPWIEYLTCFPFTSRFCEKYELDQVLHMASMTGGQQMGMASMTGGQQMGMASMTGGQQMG
Experimental: In brief, immortalized MEF-DKO-EV control cells, MEF-DKO-hiR2-FL-WT-T7 cells and MEF-DKO-miR2-FL-WT-T7 cells were harvested with 10 mM EDTA in PBS, washed and resuspended in FACS buffer (PBS, 3% FBS, 0.05% sodium azide), and seeded in Nunc U-bottom 96-well plates (Thermo Fisher Scientific, USA) at approximately 3×10⁵ cells per well. To pellet cells and remove supernatants, the plates were centrifuged at 1,500 rpm and 4° C. for 3 minutes. For primary staining, cells were resuspended in 100 μl per well of either FACS buffer alone (controls), mouse monoclonal anti-T7 IgG (Merck Millipore, USA) at 3 μg/ml FACS buffer or the purified antibodies 3, 5, 16, 22, 34, 42, 43, 44, 48, and 50 of the present disclosure also at 3 μg/ml FACS buffer and incubated on ice for 1 hour. Afterwards, plates were centrifuged at 1,500 rpm and 4° C. for 3 minutes and washed twice with 200 μl per well of FACS buffer. For secondary staining, cells were spun down and resuspended in 100 μl per well of PE-conjugated goat anti-mouse IgG F(ab′)2 detection fragment (Dianova, Germany) diluted 1:100 in FACS buffer. Protected from light, the cell suspensions were incubated on ice for 1 hour. […] Finally, cells were resuspended in 150 μl per well of FACS buffer and analyzed using a BD Accuri™ C6 Plus flow cytometer (Becton Dickinson, Germany).

[2] = biological target: T2, hiR1-FL-WT-T7 (human iRhom1 full length wild type C-terminally tagged with 3 consecutive copies of the T7 … (human, UniProt Q96CC6 1-855)); experiment: FACS, MEF-DKO-hiR1-FL-WT-T7 cells
T2 construct: also called human iRhom1 variant expressed by MEF-DKO-hiR1-FL-WT-T7 cells
T2 sequence: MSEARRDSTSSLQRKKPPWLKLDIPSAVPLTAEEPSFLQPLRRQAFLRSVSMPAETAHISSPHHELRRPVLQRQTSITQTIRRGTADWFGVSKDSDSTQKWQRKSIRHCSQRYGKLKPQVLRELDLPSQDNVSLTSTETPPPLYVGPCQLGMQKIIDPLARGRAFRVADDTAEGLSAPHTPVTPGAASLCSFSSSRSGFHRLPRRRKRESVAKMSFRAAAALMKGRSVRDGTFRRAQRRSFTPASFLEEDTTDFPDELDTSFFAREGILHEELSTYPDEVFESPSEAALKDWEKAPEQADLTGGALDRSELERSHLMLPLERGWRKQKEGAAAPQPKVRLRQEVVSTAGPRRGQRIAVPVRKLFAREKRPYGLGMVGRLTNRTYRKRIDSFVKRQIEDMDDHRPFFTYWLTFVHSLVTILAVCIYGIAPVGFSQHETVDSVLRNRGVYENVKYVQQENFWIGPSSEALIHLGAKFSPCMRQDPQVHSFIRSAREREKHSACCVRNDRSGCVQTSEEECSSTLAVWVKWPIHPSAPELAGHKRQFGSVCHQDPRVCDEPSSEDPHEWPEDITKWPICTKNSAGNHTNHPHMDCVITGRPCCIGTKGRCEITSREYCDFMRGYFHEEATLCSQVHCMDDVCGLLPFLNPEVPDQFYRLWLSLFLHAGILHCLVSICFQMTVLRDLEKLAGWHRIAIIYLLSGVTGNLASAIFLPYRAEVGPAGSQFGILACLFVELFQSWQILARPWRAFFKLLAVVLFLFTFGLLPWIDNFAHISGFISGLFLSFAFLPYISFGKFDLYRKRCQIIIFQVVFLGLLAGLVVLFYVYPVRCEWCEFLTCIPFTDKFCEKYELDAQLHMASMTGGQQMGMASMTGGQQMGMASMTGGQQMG

B1: antibody 48 (antibody, V domains shown)
VH: QVQLQQSGTELVRPGTSVKVSCKASGYAFTNYLIEWVKQRPGQGLEWIGVINPGSGFTKYNEKFKGKATLTADKSSSTVYMHLSSLTSEDSAVYFCARGLYRAMDYWGQGTSVTVSS
VL: DIQMTQSPASQSASLGESVTITCLASQTIATWLAWYQQKPGKSPQLLIYGATTLADGVPSRFSGGGSGTKFSFKISSLQAEDFVSYYCQQLYSTPYTFGGGTKLEIK
notes: Mouse IgG, kappa light chain; also called clone #48; purified antibody 48
- binding result [1]: no binding (tested: 3 µg/ml)
- binding result [2]: no binding (tested: 3 µg/ml)
